In paper PMC11549086 (2024):

What was measured:
[1] = molecular target: T1, taxol-stabilized microtubules (tubulin) (Sus scrofa, UniProt P02550); assay: TIRF microscopy, Hill fit (150 mM salt)
T1 chain 1: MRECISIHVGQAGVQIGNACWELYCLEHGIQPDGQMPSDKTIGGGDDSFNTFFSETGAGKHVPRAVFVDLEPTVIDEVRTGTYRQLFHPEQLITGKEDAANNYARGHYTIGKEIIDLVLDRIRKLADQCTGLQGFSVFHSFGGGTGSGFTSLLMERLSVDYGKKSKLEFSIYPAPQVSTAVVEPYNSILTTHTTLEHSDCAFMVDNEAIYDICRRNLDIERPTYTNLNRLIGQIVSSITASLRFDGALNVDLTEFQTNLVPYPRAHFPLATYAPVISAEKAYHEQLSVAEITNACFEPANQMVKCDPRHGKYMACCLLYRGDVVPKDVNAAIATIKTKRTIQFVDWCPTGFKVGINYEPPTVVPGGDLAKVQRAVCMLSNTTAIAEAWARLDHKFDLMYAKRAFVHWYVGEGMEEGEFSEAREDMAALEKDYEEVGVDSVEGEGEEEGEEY
T1 chain 2: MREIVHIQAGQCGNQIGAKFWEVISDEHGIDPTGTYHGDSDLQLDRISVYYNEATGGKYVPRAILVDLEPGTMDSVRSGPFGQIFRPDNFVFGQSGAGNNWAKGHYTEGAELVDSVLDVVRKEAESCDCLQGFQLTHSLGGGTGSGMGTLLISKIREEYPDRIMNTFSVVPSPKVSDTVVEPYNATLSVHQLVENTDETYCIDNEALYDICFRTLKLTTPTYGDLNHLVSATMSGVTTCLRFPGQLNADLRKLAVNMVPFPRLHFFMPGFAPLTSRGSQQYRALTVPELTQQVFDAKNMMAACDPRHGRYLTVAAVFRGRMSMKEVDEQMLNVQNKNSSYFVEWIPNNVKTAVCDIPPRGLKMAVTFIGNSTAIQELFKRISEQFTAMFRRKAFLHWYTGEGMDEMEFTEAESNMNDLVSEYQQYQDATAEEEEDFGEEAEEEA

[2] = molecular target: T1, taxol-stabilized microtubules (tubulin); assay: TIRF microscopy, Hill fit (no added salt)

B1: HURP 1-285 (protein)
chain: MSSSHFASRHRKDISTEMIRTKIAHRKSLSQKENRHKEYERNRHFGLKDVNIPTLEGRILVELDETSQGLVPEKTNVKPRAMKTILGDQRKQMLQKYKEEKQLQKLKEQREKAKRGIFKVGRYRPDMPCFLLSNQNAVKAEPKKAIPSSVRITRSKAKDQMEQTKIDNESDVRAIRPGPRQTSEKKVSDKEKKVVQPVMPTSLRMTRSATQAAKQVPRTVSSTTARKPVTRAANENEPEGKVPSKGRPAKNVETKPDKGISCKVDSEENTLNSQTNATSGMNPDG
modifications: C-terminal eGFP fusion, taxol-stabilized microtubules
B1 gave a Kd [1] of roughly 300 nM and a Kd [2] of roughly 29 nM.
